Results on 50 sequences are retold here after the supplement of paper PMC9112550, “Optimization of the antimicrobial peptide Bac7 by deep mutational scanning” (BMC Biology, 2022).
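Also: peptides expressed intracellularly from a pBAD plasmid library in pooled LB shake-flask culture, induced with 0.3% L-arabinose, DNA abundance read by NGS, three biological replicates, DESeq2 with apeglm shrinkage.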

This data set relates to Escherichia coli TOP10. Nature of the data set: shrunken log2 fold change of peptide-encoding DNA abundance (4.5 h post-induction vs induction); higher = less antimicrobial activity (less host growth inhibition). To be noted: time post-induction: 4.5 h; library: site-saturation at positions 5, 18, 19, 20.
With RRIRFRPPRLPRPRPRPPDQPRP, the “shrunken log2 fold change” value worked out at 0.63.
Regarding RRIRSRPPRLPRPRPRPQCLPRP, the “shrunken log2 fold change” value was -0.208.
In the case of RRIRNRPPRLPRPRPRPRLGPRP, the “shrunken log2 fold change” value turned out to be 0.187.
For the sequence RRIRIRPPRLPRPRPRPKGQPRP, the “shrunken log2 fold change” value is 0.143.
As to RRIRCRPPRLPRPRPRPGQHPRP, the “shrunken log2 fold change” value was found to be 0.00766.
Under RRIRSRPPRLPRPRPRPQIQPRP stands -0.118; under RRIRMRPPRLPRPRPRPHVDPRP, 0.51; under RRIRGRPPRLPRPRPRPGQTPRP, 0.405.
As to RRIRWRPPRLPRPRPRPWIDPRP, the “shrunken log2 fold change” value was -0.049.
RRIRKRPPRLPRPRPRPNAIPRP: the “shrunken log2 fold change” value came to 0.0998.
Under RRIRPRPPRLPRPRPRPAVPPRP stands 0.1.
Take RRIRIRPPRLPRPRPRPAYLPRP: the “shrunken log2 fold change” value was -0.376.
For RRIRNRPPRLPRPRPRPKIEPRP, the “shrunken log2 fold change” value is -0.0398.
In the case of RRIRMRPPRLPRPRPRPMQHPRP, the “shrunken log2 fold change” value amounted to 0.579.
As for RRIRLRPPRLPRPRPRPCSQPRP, the figure is -0.0964; as for RRIRCRPPRLPRPRPRPDVYPRP, 0.0165; as for RRIRFRPPRLPRPRPRPQRWPRP, 0.427.
RRIRSRPPRLPRPRPRPDSDPRP: the “shrunken log2 fold change” value is 0.051.
Turning to RRIRVRPPRLPRPRPRPGGTPRP, the “shrunken log2 fold change” value turned out to be 0.0237.
As for RRIRARPPRLPRPRPRPSTYPRP, the figure is -0.356.
Under RRIRPRPPRLPRPRPRPWHWPRP stands -0.0102.
Take RRIRDRPPRLPRPRPRPQFCPRP: the “shrunken log2 fold change” value is -0.137.
As for RRIRLRPPRLPRPRPRPAMVPRP, the figure is 0.0527; as for RRIRLRPPRLPRPRPRPCDWPRP, 0.201.
As to RRIRNRPPRLPRPRPRPFMTPRP, the “shrunken log2 fold change” value is -0.429.
Under RRIRPRPPRLPRPRPRPVWNPRP stands -0.109; under RRIRIRPPRLPRPRPRPCKFPRP, -0.549.
As for RRIRARPPRLPRPRPRPDSTPRP, the “shrunken log2 fold change” value is -0.0804.
Consider RRIRTRPPRLPRPRPRPWQPPRP, for which the “shrunken log2 fold change” value was -0.0263.
For the sequence RRIRPRPPRLPRPRPRPTDRPRP, the “shrunken log2 fold change” value stood at 0.121.
For the sequence RRIRERPPRLPRPRPRPAYYPRP, the “shrunken log2 fold change” value was -0.356.
Consider RRIRPRPPRLPRPRPRPKITPRP, for which the “shrunken log2 fold change” value was -0.105.
In the case of RRIRMRPPRLPRPRPRPAYMPRP, the “shrunken log2 fold change” value was -0.0929.
Take RRIRKRPPRLPRPRPRPPWKPRP: the “shrunken log2 fold change” value came out at 0.173.
For RRIRVRPPRLPRPRPRPTNVPRP, the “shrunken log2 fold change” value is -0.374.
Turning to RRIRKRPPRLPRPRPRPLRVPRP, the “shrunken log2 fold change” value stood at 1.04.
On to RRIRSRPPRLPRPRPRPCCGPRP, for which the “shrunken log2 fold change” value was 0.983.
Turning to RRIRSRPPRLPRPRPRPLNCPRP, the “shrunken log2 fold change” value is -0.374.
Take RRIRNRPPRLPRPRPRPAKSPRP: the “shrunken log2 fold change” value was determined as 0.163.
Under RRIRSRPPRLPRPRPRPPRFPRP stands 0.378; under RRIRGRPPRLPRPRPRPNVTPRP, 0.35.
Turning to RRIRGRPPRLPRPRPRPVASPRP, the “shrunken log2 fold change” value came to 0.623.
For RRIRHRPPRLPRPRPRPVCEPRP, the “shrunken log2 fold change” value came to 0.0977.
For RRIRMRPPRLPRPRPRPWSYPRP, the “shrunken log2 fold change” value was found to be 0.206.
As to RRIRLRPPRLPRPRPRPIVPPRP, the “shrunken log2 fold change” value stood at 0.0358.
For the sequence RRIRYRPPRLPRPRPRPEDGPRP, the “shrunken log2 fold change” value was -0.141.
RRIRGRPPRLPRPRPRPMFQPRP: the “shrunken log2 fold change” value worked out at 0.357.
Take RRIRSRPPRLPRPRPRPRPYPRP: the “shrunken log2 fold change” value was -0.244.
As for RRIRTRPPRLPRPRPRPHGRPRP, the figure is 0.0169.
As to RRIRIRPPRLPRPRPRPGDWPRP, the “shrunken log2 fold change” value was determined as 0.585.
